Consider two substances from patent US20170275357A1.

Like-named read-outs stand apart in the source and are kept apart here. Where only a bound is given, the exact number is not on record here.

Assay [1] deals with IL-23 L116A (human) (UniProt P29460). Nature of the assay: cell-based or functional assay.
Assay [2] addresses IL-23 D55A (human) (UniProt P29460). Nature of the assay: cell-based or functional assay.
In assay [3] the target is IL-23 M54A (human) (UniProt P29460). Nature of the assay: cell-based or functional assay.
The target of assay [4] is wild-type IL-23 (His-tagged p19 / non-tagged p40) (human) (UniProt P29460). The assay is described as follows: cell-based or functional assay.
Assay [5] has as its target IL-23 H53A (human) (UniProt P29460). The assay is described as follows: cell-based or functional assay.
Assay [6] deals with IL-23 E112A (human) (UniProt P29460). Nature of the assay: cell-based or functional assay.
Assay [7] deals with IL-23 D118A (human) (UniProt P29460). Nature of the assay: cell-based or functional assay.
For assay [8], the target named is IL-23 L116A (human) (UniProt P29460). Nature of the assay: SPR Biacore, antibody captured on protein A, single alanine mutants of IL-23. A general note: Surface plasmon resonance follows binding to a sensor surface in real time, without labels.
The target of assay [9] is IL-23 D55A (human) (UniProt P29460). Described as above.
Assay [10] deals with IL-23 M54A (human) (UniProt P29460). The description is as above.
Assay [11] addresses IL-23 H53A (human) (UniProt P29460). The assay is described as above.
For assay [12], the target named is IL-23 E112A (human) (UniProt P29460). The description is as above.
Assay [13] concerns the target IL-23 D118A (human) (UniProt P29460). The assay is described as above.
The target of assay [14] is IL-23 alanine shave mutant M5 (human) (UniProt P29460). Nature of the assay: SPR Biacore T100, antibody captured on protein A, purified IL-23 variant, 1:1 Langmuir.
Assay [15] addresses IL-23 alanine shave mutant M10 (human) (UniProt P29460). The assay is described as above.
Assay [16] addresses IL-23 alanine shave mutant M7 (human) (UniProt P29460). The assay is described as above.
The target of assay [17] is IL-23 alanine shave mutant M9 (human) (UniProt P29460). The assay is described as above.
The target of assay [18] is wild-type IL-23 (His-tagged p19 / non-tagged p40) (human) (UniProt P29460). The assay is described as follows: cell-based or functional assay. The source holds these as a separate data set.
Assay [19] has as its target IL-23 alanine shave mutant M10 (human) (UniProt P29460). The assay is described as follows: cell-based or functional assay.
Assay [20] concerns the target IL-23 alanine shave mutant M7 (human) (UniProt P29460). Nature of the assay: cell-based or functional assay.
Assay [21] has as its target IL-23 alanine shave mutant M9 (human) (UniProt P29460). The assay is described as follows: cell-based or functional assay.
The target in assay [22] is IL-23 alanine shave mutant M5 (human) (UniProt P29460). Nature of the assay: cell-based or functional assay.

Take Merck's IL-23 p19 mAb (7G10) (antibody): the IC50, IL-23 variant-induced pSTAT3 in BaF3/huIL-23Ra/huIL-12Rb1 transfectants with IL-23 L116A (human) [1] is 0.24 nM; in the assay with IL-23 D55A (human) [2] it was 0.18 nM; with IL-23 M54A (human) [3], 0.27 nM; in assay [4], 0.18 nM; with IL-23 H53A (human) [5], 0.19 nM; with IL-23 E112A (human) [6] it was > 3 nM. Besides, the IC50, IL-23 variant-induced pSTAT3 in BaF3/huIL-23Ra/huIL-12Rb1 transfectants with IL-23 D118A (human) [7] was determined as 0.22 nM; in assay [18], 380 pM; in [19], 350 pM; in assay [20], 310 pM; in [21], 260 pM. The ΔΔG with IL-23 L116A (human) [8] was 0.2 kcal/mol; with IL-23 D55A (human) [9], 0.7 kcal/mol; in the assay with IL-23 M54A (human) [10], 1 kcal/mol; with IL-23 H53A (human) [11], 0 kcal/mol; with IL-23 E112A (human) [12], 1.7 kcal/mol; with IL-23 D118A (human) [13], -0.3 kcal/mol. The ΔΔG was found to be 1.9 kcal/mol in assay [14], 0.4 kcal/mol in assay [15], 0.2 kcal/mol in assay [16] and 0.2 kcal/mol in assay [17].
For “STELARA (ustekinumab, IL-12/IL-23 p40 mAb) (antibody)”, the IC50, IL-23 variant-induced pSTAT3 in BaF3/huIL-23Ra/huIL-12Rb1 transfectants with IL-23 L116A (human) [1] is 54 pM; in the assay with IL-23 D55A (human) [2], 77 pM; with IL-23 M54A (human) [3], 81 pM; in [4], 67 pM; in the assay with IL-23 H53A (human) [5], 78 pM; in the assay with IL-23 E112A (human) [6] it was 33 pM. Further, the IC50, IL-23 variant-induced pSTAT3 in BaF3/huIL-23Ra/huIL-12Rb1 transfectants in the assay with IL-23 D118A (human) [7] was determined as 52 pM; in [18] it was 79 pM; in assay [22], 62 pM; in assay [19], 71 pM; in [20], 59 pM; in assay [21], 67 pM. For the same substance, the ΔΔG with IL-23 L116A (human) [8] was 0.5 kcal/mol; with IL-23 D55A (human) [9], 0.5 kcal/mol; with IL-23 M54A (human) [10] it was 0.3 kcal/mol; with IL-23 H53A (human) [11], 0.3 kcal/mol; with IL-23 E112A (human) [12], 0.3 kcal/mol; with IL-23 D118A (human) [13], -0.3 kcal/mol. The ΔΔG was determined as 0.1 kcal/mol in [14], 0.3 kcal/mol in assay [15], 0.1 kcal/mol in [16] and 0.1 kcal/mol in [17].
